Results on one molecule are retold here after US7906628B2, “Targeting proteins to deliver therapeutic or diagnostic reagents” (The Board of Regents, The University of Texas System, priority 2002, dated 2011).

For assay [1], the system named is human umbilical endothelial cells (HUVEC). Briefly: Endothelial tube assay. In kind it is cell-based. Particulars: supernatant from plasmid-transfected 293T cells; FIGS. 2A-2D. As to the method:
Endothelial tube assay: Matrigel (Collaborative Biomolecules, Bedford, Mass.) was added (50 μl) to each well of a 96-well plate and allowed to polymerize. A suspension of 5,000 human umbilical endothelial cells (HUVEC) in EGM-2 medium without antibiotic was passed into each well coated with matrigel. The cells were treated with supernatants collected from different plasmid (endostatin, endostatin-CD, and CD) transfected 293T cells. All assays were performed in triplicate. Cell were incubated for 12-24 hr at 37° C. and viewed using a microscope. The cells were then photographed. Five fields were viewed, and tubes were counted and averaged.

In the next assay the test system is HUVECs. Nature of the assay: Migration assay (VEGF-induced chemotaxis, Boyden chamber). In kind it is cell-based, human. Particulars: supernatant from plasmid-transfected 293T cells; 10 ng/ml VEGF as chemotactant; FIGS. 2E-2H. The protocol:
After trypsinizing, washing, and diluting cells in M199 medium containing 0.5% FBS, 10,000 cells were seeded on the upper chamber wells, together with supernatant collected from 293T transfected with different plasmid (endostatin, endostatin-CD, and CD). M199 medium containing 2% FBS plus 10 ng/ml VEGF was placed in the lower chamber as a chemotactant. The cell-containing compartments were separated from the chemotactant with polycarbonate filter of 8 um pore size. The chamber was incubated at 37° C. for 6-8 hr. After discarding the non-migrated cells and washing the upper wells with PBS, the filters were scraped with a plastic blade, fixed in 4% formaldehyde in PBS, stained with DAPI fluorescent stain and placed on a glass slide. By using a fluorescent high power field, several independent homogenous images were recorded. Five fields were viewed, and […] were counted and averaged. All assays were performed in triplicate.

B1: endostatin: endogenous angiogenesis inhibitor, 18 KD, used as comparator (protein, listed as Homo sapiens)
chain: IVNLKDELLFPSWEALFSGSEGPLKPGARIFSFDGKDVLRHPTRPQKSVWHGSDPNGRRLTESYCETWRTEAPSATGQASSLLGGRLLGQSAASSHHAYIVL
As for B1, in assay [1], the “HUVEC cell tube formation” value was “inhibitory effect”. In the assay with HUVECs, the HUVEC cell migration result is reported as “inhibitory effect”.
